# From US20240189392A1 (AMBRX, published 2024)
# B1: RLX-A-AQ1-20KPEG (ligand)
# chain 1: XLYSALANKCCHVGCTKRSLARFC
# chain 2: ASWMEEVIKLCGRELVRAQIAICGMSTWS
# modifications: pACF (para-acetylphenylalanine) at position 1 of the A chain, linked to a 20 kDA PEG via an oxime linkage
# Legend:
# Assay in all cases: cell-based or functional assay
# dog RXFP1 = dog RXFP1 (dog)
# rat RXFP1 = target: T1, rat RXFP1 (rat, UniProt Q6R6I6 1-758)
# T1 sequence (looked up): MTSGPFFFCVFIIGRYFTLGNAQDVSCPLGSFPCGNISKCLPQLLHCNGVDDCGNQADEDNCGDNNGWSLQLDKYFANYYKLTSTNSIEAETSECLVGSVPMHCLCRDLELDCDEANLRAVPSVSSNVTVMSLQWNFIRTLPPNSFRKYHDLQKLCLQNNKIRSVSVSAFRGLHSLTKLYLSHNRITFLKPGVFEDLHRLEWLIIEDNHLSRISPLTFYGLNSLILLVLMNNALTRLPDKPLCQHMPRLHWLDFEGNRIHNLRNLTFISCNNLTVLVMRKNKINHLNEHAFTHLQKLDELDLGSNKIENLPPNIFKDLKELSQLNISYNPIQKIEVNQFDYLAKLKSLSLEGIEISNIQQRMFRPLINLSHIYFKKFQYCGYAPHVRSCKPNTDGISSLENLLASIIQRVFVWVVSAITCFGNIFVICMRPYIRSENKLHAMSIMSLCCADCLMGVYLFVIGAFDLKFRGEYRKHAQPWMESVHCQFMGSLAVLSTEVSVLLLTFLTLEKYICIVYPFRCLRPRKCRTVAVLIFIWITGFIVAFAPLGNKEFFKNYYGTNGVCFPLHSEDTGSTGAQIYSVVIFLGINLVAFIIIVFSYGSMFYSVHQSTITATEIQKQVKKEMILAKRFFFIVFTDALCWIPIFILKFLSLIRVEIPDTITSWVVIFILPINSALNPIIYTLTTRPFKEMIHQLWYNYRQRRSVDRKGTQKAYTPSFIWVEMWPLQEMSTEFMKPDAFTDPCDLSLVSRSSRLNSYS
# human RXFP1 = target: T2, human RXFP1 (human, UniProt Q9HBX9 1-757)
# T2 sequence (looked up): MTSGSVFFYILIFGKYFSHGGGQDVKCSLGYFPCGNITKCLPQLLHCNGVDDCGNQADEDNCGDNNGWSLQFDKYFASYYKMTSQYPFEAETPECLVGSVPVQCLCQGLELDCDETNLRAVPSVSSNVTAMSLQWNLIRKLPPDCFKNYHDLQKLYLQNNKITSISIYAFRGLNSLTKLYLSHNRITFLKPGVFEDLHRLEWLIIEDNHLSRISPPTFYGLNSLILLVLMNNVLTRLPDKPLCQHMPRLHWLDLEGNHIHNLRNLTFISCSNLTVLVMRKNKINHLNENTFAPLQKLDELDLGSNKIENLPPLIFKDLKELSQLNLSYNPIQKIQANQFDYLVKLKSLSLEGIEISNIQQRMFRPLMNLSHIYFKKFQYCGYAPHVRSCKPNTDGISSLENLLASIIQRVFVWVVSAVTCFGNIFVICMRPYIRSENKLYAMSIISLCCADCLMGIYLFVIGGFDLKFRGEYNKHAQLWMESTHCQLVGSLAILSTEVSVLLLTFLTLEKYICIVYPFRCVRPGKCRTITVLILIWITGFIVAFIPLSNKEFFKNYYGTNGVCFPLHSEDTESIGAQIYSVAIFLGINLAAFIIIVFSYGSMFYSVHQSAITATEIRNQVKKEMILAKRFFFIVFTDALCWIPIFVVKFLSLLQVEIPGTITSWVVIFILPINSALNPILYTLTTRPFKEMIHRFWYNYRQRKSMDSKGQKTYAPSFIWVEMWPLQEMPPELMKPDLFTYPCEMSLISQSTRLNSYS
# human RXFP4 = human RXFP4 (human, UniProt Q8TDU9 1-374)
# Sequence of human RXFP4 (Q8TDU9 whole entry): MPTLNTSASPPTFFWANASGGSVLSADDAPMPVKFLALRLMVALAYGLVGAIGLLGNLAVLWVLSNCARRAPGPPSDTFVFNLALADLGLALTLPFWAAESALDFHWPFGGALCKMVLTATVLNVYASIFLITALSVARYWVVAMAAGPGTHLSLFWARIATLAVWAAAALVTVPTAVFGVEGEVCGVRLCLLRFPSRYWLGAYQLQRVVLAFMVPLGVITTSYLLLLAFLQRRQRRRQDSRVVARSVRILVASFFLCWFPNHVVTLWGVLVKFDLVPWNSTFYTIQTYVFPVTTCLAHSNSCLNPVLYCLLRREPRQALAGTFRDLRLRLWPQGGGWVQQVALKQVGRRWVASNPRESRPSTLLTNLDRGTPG
# human RXFP3 = target: T3, human RXFP3 (human, UniProt Q9NSD7 1-469)
# T3 sequence (looked up): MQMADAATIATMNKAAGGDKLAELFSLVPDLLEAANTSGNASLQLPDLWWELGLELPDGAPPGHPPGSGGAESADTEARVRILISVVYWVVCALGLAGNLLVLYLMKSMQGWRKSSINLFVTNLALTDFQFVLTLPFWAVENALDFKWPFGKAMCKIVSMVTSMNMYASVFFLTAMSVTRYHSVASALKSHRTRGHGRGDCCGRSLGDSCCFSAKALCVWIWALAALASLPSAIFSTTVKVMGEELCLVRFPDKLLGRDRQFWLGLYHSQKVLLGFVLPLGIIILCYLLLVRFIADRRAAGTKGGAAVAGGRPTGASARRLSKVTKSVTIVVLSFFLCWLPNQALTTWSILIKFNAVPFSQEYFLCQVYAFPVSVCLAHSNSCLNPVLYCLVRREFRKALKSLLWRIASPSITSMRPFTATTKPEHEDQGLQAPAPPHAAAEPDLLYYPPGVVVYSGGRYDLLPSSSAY
binder,measurement,setting,value
B1,"Potency Ratio (RLX-A-AQ1-20KPEG/WT-RLX), cAMP assay, dog RXFP1/CHO-K1 cells",dog RXFP1,27 fold
same,"RLX-A-AQ1-20KPEG Potency Ratio (hRXFP 1-1.0), cAMP assay",dog RXFP1,4.7 ratio
same,"cAMP Assay EC50 (nM), dog RXFP1/CHO-K1 cells",dog RXFP1,15 nM
same,"Potency Ratio (RLX-A-AQ1-20KPEG/WT-RLX), cAMP assay, rat RXFP1/CHO-K1 cells",rat RXFP1,32 fold
same,"RLX-A-AQ1-20KPEG Potency Ratio (hRXFP 1-1.0), cAMP assay",rat RXFP1,0.34 ratio
same,"cAMP Assay EC50 (nM), rat RXFP1/CHO-K1 cells",rat RXFP1,1.1 nM
same,"Potency Ratio (RLX-A-AQ1-20KPEG/WT-RLX), cAMP assay, THP-1 cells",human RXFP1,26 fold
same,"Potency Ratio (RLX-A-AQ1-20KPEG/WT-RLX), cAMP assay, hRXFP1/CHO-K1 cells",human RXFP1,32 fold
same,"RLX-A-AQ1-20KPEG Potency Ratio (hRXFP 1-1.0), cAMP assay",human RXFP1,1 ratio
same,"cAMP Assay EC50 (nM), THP-1 cells",human RXFP1,7.6 nM
same,"cAMP Assay EC50 (nM), hRXFP1/CHO-K1 cells",human RXFP1,3.2 nM
same,"cAMP Assay EC50 (nM), inhibition of forskolin-induced cAMP, human RXFP4/CHO-K1 cells",human RXFP4,> 3000 nM
same,"cAMP Assay EC50 (nM), inhibition of forskolin-induced cAMP, human RXFP3/CHO-K1 cells",human RXFP3,> 3000 nM
